These results are taken from US20220409694A1, “POLYPEPTIDE, AND PREPARATION METHOD THEREFOR AND USE THEREOF” (SHANXI JINBO BIO-PHARMACEUTICAL CO., LTD., priority 2020, published 2022).

Common to all, as to assay: cell-based or functional assay
Test [1] concerns the target SARS-CoV S protein (pcDNA3.1-SARS-CoV-S, on pseudovirus) (SARS-CoV) (UniProt P59594).
Test [2] addresses Rs3367-CoV S protein (pcDNA3.1-Rs3367-CoV-S, on pseudovirus) (Rs3367-CoV (SARS-like virus from bats)).
Test [3] concerns the target 2019-nCoV S protein (2019-nCoV-S, as encoded in pAAV-IRES-EGFP-2019-nCoV-S / pcDNA3.1) (2019-nCoV (SARS-CoV-2)) (UniProt P0DTC2).
Test [4] deals with S protein of live 2019-nCoV (SARS-CoV-2) virus (2019-nCoV (SARS-CoV-2)) (UniProt P0DTC2).
Test [5] addresses WIV1-CoV S protein (pcDNA3.1-WIV1-CoV-S, on pseudovirus) (WIV1-CoV (SARS-like virus from bats)).

EK1-chol (peptide): the Inhibitory Activity, IC50 (pseudovirus infection of HuH7, luciferase) is 0.01 µM in test [1], 0.03 µM in test [2], 0.02 µM in test [3] and 0.04 µM in test [5]. In test [4], this substance had an IC50, 2019-nCoV live virus (plaque reduction assay, VERO-E6) of 36.5 nM.

Consider EK1-plam (peptide), for which the Inhibitory Activity, IC50 (pseudovirus infection of HuH7, luciferase) was 0.17 µM in test [1], 0.13 µM in test [2], 0.36 µM in test [3] and 0.1 µM in test [5]. The IC50, 2019-nCoV live virus (plaque reduction assay, VERO-E6) in test [4] worked out at 436 nM.
